From the supplement of paper PMC10567573 come the findings set out here.

The data set can be described thus: protein stability index of a GFP-peptide fusion (GPS, HEK-293T) (PSI 1-6); higher = more stable.
[1] abbreviates: treatment: DMSO, c terminus: a fixed tail appended.
Setting [2] is: treatment: MLN4924 1 uM, 8 h, c terminus: a fixed tail appended.

± gives the standard deviation.
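Further: 24-mer peptide tiles fused after GFP, lentivirally expressed, FACS-sorted into six equal bins by GFP/DsRed ratio, decoded by Illumina sequencing, PSI is the read-weighted mean bin number.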

Take IKQLRSGGTPIRGALQIEQSEESD [PTPRD]: the protein stability index turned out to be 4.98 ± 0.36 under setting [1] and 5.15 ± 0.21 under setting [2].

For ILEFAEKEGMVSSGQNLLAVESQ [PTPN9], the protein stability index came out at 2.96 ± 0.65 (treatment: DMSO, c terminus: native) and 3.03 ± 0.37 (treatment: MLN4924 1 uM, 8 h, c terminus: native).

Turning to INSGYETRRKKGKKDKDISKEKDT [KMT2E], the protein stability index turned out to be 4.59 ± 0.13 under setting [1] and 4.78 ± 0.16 under setting [2].

IPSTQFDAAHPTNVQRLAEPSQML [CTNNB1]: the protein stability index came to 4.24 ± 0.18 under setting [1] and 4.34 ± 0.09 under setting [2].

In the case of IQDKLFQVAKREREAATKHSKASL [CHCHD6], the protein stability index is, setting by setting: under setting [1], 3.86 ± 0.47; under setting [2], 4.14 ± 0.22.

IQFIKLFGMAKIDNLLQEMLLGGS [HNF4A]: the protein stability index under setting [1] amounted to 2.84 ± 0.72 and the protein stability index under setting [2] came to 3.11 ± 0.61.

Regarding IQYNRRQLLILLQNCTDEGEREAI [POP5], the protein stability index runs as follows: under setting [1], 2.74 ± 0.3; under setting [2], 2.78 ± 0.51.

For ISIPITGDTLRTFSLVLVLDLSKP [DYNC2LI1], the protein stability index under setting [1] worked out at 2.69 ± 0.62 and the protein stability index under setting [2] was 2.865 ± 0.02.

On to ISWAFTDRPDLSLTVLPKLQARER [C2CD2L], for which the protein stability index is, setting by setting: under setting [1], 2.68 ± 0.28; under setting [2], 2.71 ± 0.43.

As for ITLLILAELLIFSVPIVYEKYKTQ [RTN3], the protein stability index by setting is: under setting [1], 3.41 ± 0.32; under setting [2], 3.4 ± 0.94.

Consider ITWFKDFLPVDTSNNNGRIKQLRS [PTPRD], for which the protein stability index was found to be 2.47 ± 0.52 under setting [1] and 2.96 ± 0.3 under setting [2].

Take IVTWFMLLYAQGLLAIQFLEFFYG [SLC19A2]: the protein stability index is 3.28 ± 0.52 under setting [1] and 3.18 ± 0.46 under setting [2].

With IYQTLFLNGENSDIKICALGEEWS [GMCL1], the protein stability index reads like this: under setting [1], 2.26 ± 0.18; under setting [2], 2.16 ± 0.19.

As for KAKRNRTCRPPSSSESSSDSDNSG [ANKRD17], the protein stability index is 5.64 ± 0.27 under setting [1] and 5.43 ± 0.2 under setting [2].

Regarding KALQEENRDLRKASVTIQARAEQE [CCDC6], the protein stability index reads like this: under setting [1], 5.32 ± 0.2; under setting [2], 5.32 ± 0.091.

KAMNMRYSDRTNIISKPVPQTLIM [FEM1C] had a protein stability index under setting [1] of 2.09 ± 0.14 and a protein stability index under setting [2] of 2.38 ± 0.5.

KAVKYQSKARRKKIMIIICCVILG [STX1A]: the protein stability index by setting is: under setting [1], 2.18 ± 0.8; under setting [2], 2.25 ± 0.43.

Take KCHLWTAMDLGFFVVMGVIGGLLG [CLCN6]: the protein stability index by setting is: under setting [1], 3.14 ± 0.38; under setting [2], 3 ± 0.24.

Sequence KDEDLDLFPASPTREAHRESSVPV [FBF1] registered a protein stability index under setting [1] of 5.11 ± 0.33 and a protein stability index under setting [2] of 5.02 ± 0.35.

KDIDMFSMCEHHLVPFVGKVHIGY [GCH1]: the protein stability index runs as follows: under setting [1], 2.34 ± 0.76; under setting [2], 2.27 ± 0.36.

In the case of KEDIDLIDILWRQDIDLGAGREVF [NFE2L1], the protein stability index came to 2.75 ± 0.57 under setting [1] and 3.47 ± 0.88 under setting [2].

Take KEDQAWDGASQDCPPLPAGVSFHI [FBXO34]: the protein stability index came to 3.58 ± 0.33 under setting [1] and 3.46 ± 0.31 under setting [2].

For KEEEEKDHNEAMKPEEPPQNLLRE [PCMTD1], the protein stability index by setting is: under setting [1], 5.39 ± 0.77; under setting [2], 5.88 ± 0.09.

Take KEERKTEVVMNSQQTPVGTPKDKR [PALM]: the protein stability index turned out to be 5.43 ± 0.32 under setting [1] and 5.36 ± 0.32 under setting [2].

Take KEPAEFNGDGAFLHDNHEQMPTEI [ZNF649]: the protein stability index runs as follows: under setting [1], 5.11 ± 0.25; under setting [2], 5.16 ± 0.26.

For the sequence KESLCISITVSKVDKDQPSILNSC [FBXO34], the protein stability index is, setting by setting: under setting [1], 2.28 ± 0.33; under setting [2], 2.09 ± 0.28.

KFDVLRAIELFHSYRETRRKEGIV [PTPN9] displayed a protein stability index under setting [1] of 2.35 ± 0.079 and a protein stability index under setting [2] of 1.91 ± 0.42.

Regarding KFFFKSMDDDFGVVKEEISDDNAK [DVL3], the protein stability index amounted to 4.76 ± 0.19 under setting [1] and 4.81 ± 0.099 under setting [2].

As to KGEEVTPISAIRHEGKTDSERTDT [EPB41L3], the protein stability index is 5.44 ± 0.45 under setting [1] and 5.43 ± 0.3 under setting [2].

KGNTTLQQLDLRWNNVGLLGGRAL [LRRC45]: the protein stability index under setting [1] stood at 2.68 ± 0.034 and the protein stability index under setting [2] is 2.73 ± 0.26.

For KGVDFQKFCMNGAALCALGKDCFL [ETS1], the protein stability index by setting is: under setting [1], 2.62 ± 0.4; under setting [2], 2.09 ± 0.28.

For the sequence KHVEYEVSSQRFKSSVYRRYNDFV [SNX8], the protein stability index was 2.35 ± 0.3 under setting [1] and 2.8 ± 0.39 under setting [2].

As to KIVEFNPMVLKGKIRPDSSRPELL [GLT8D2], the protein stability index by setting is: under setting [1], 3.09 ± 0.36; under setting [2], 3.35 ± 0.39.

In the case of KKDILLVNDHLLNFVRERTLDKRW [PDS5B], the protein stability index runs as follows: under setting [1], 2.13 ± 0.26; under setting [2], 2.35 ± 0.18.

With KKINTEGDVPPSMSGSCAVCVDRV [KLHDC2], the protein stability index reads like this: under setting [1], 4.18 ± 0.34; under setting [2], 4.29 ± 0.17.

Turning to KKTHETLSHAGQKATAAFSNVGTA [TPD52L1], the protein stability index is, setting by setting: under setting [1], 4.44 ± 0.28; under setting [2], 4.34 ± 0.21.

For the sequence KLAEAYLNLGPALSAALASSQKQH [C8orf76], the protein stability index is, setting by setting: under setting [1], 2.68 ± 0.69; under setting [2], 2.82 ± 0.97.

As to KLGLHDNHWVPACHSFNRAIHKKA [FBXO34], the protein stability index is 2.79 ± 0.14 under setting [1] and 2.91 ± 0.18 under setting [2].

For KLIATSNKPAVKLLYNRSNNKYSY [KCTD10], the protein stability index was 2.23 ± 0.14 under setting [1] and 2.49 ± 0.23 under setting [2].

On to KLVKKHAAQRSTETALYRKMLGNP [FKBP8], for which the protein stability index by setting is: under setting [1], 2.95 ± 0.47; under setting [2], 3.04 ± 0.25.

Turning to KNKKSSTGEASENGLEDIDRILER [TCF25], the protein stability index worked out at 5.22 ± 0.48 under setting [1] and 5.49 ± 0.18 under setting [2].

KNKPKMNYEKLSRGLRYYYDKNII [ETS1] came in with a protein stability index under setting [1] of 2.71 ± 1.1 and a protein stability index under setting [2] of 2.17 ± 0.28.

As for KPLYPDDYVHISSKPCDLHCTTVD [ADAMTSL2], the protein stability index was found to be 4.29 ± 0.35 under setting [1] and 4.21 ± 0.36 under setting [2].

For KPVLAKDSSNPYPNFNFNISHQGD [AASDHPPT], the protein stability index worked out at 4.22 ± 0.22 under setting [1] and 4.01 ± 0.18 under setting [2].

For the sequence KRFEKQLTQIDGTLSTIEFQREAL [CHMP4C], the protein stability index worked out at 3.98 ± 0.17 under setting [1] and 4 ± 0.27 under setting [2].

On to KRNFISSKSKQPAGHRRPAGGIRE [C22orf31], for which the protein stability index under setting [1] was 4.07 ± 0.11 and the protein stability index under setting [2] amounted to 3.99 ± 0.22.

Turning to KRQVPREQAQAYAERLGVTFFEVS [RAB40A], the protein stability index is, setting by setting: under setting [1], 3.11 ± 0.17; under setting [2], 3.21 ± 0.31.

As to KSENARLVVQIDNAKLAADDFRTK [KRT33B], the protein stability index runs as follows: under setting [1], 4.4 ± 0.41; under setting [2], 4.25 ± 0.27.

As to KSESSLPHQTSKMENLPGLASGPG, the protein stability index reads like this: under setting [1], 4.87 ± 0.29; under setting [2], 4.43 ± 0.33.

For KTKTSEYPIIFVYYLRKGKKINSN [SPANXN3], the protein stability index came out at 2.37 ± 0.59 under setting [1] and 2.01 ± 0.49 under setting [2].

As to KTLAVKNEEIQSFIYSLKQMLLNV [FSD1], the protein stability index is 2.52 ± 0.37 under setting [1] and 2.14 ± 0.21 under setting [2].

Turning to KTLLAIGGWNFSTQKFTDMVATAN [CHIT1], the protein stability index is, setting by setting: under setting [1], 2.39 ± 0.34; under setting [2], 2.14 ± 0.21.
